From the supplement of paper PMC11246515
± gives the standard deviation of the averaged measurements.

Assay: total protein half-life in vivo (active degradation + dilution); higher = more stable protein
[1] = E. coli NCM3722 delta-clpP delta-lon delta-hslV, growth: N-lim chemostat, doubling time 6 h
[2] = E. coli NCM3722 delta-clpP, growth: N-lim chemostat, doubling time 6 h
[3] = E. coli NCM3722 delta-lon, growth: N-lim chemostat, doubling time 6 h
[4] = E. coli NCM3722 delta-smpB, growth: N-lim chemostat, doubling time 6 h
[5] = wild type E. coli NCM3722, growth: C-lim chemostat, doubling time 6 h
[6] = wild type E. coli NCM3722, growth: C-lim chemostat, doubling time 12 h
[7] = wild type E. coli NCM3722, growth: N-lim chemostat, doubling time 6 h
[8] = wild type E. coli NCM3722, growth: N-lim chemostat, doubling time 12 h
[9] = wild type E. coli NCM3722, growth: P-lim chemostat, doubling time 6 h
[10] = wild type E. coli NCM3722, growth: P-lim chemostat, doubling time 12 h
[11] = wild type E. coli NCM3722, growth: C-lim chemostat, doubling time 3 h
[12] = E. coli NCM3722 delta-hslV, growth: N-lim chemostat, doubling time 6 h

| Sequence | total protein half-life in vivo [1] [h] | total protein half-life in vivo [2] [h] | total protein half-life in vivo [3] [h] | total protein half-life in vivo [4] [h] | total protein half-life in vivo [5] [h] | total protein half-life in vivo [6] [h] | total protein half-life in vivo [7] [h] | total protein half-life in vivo [8] [h] | total protein half-life in vivo [9] [h] | total protein half-life in vivo [10] [h] | total protein half-life in vivo [11] [h] | total protein half-life in vivo [12] [h] |
| --- | --- | --- | --- | --- | --- | --- | --- | --- | --- | --- | --- | --- |
| MTPGEVRRLYFIIRTFLSYGLDELIPKMRITLPLRLWRYSLFWMPNRHKDKLLGERLRLALQELGPVWIKFGQMLSTRRDLFPPHIADQLALLQDKVAPFDGKLAKQQIEAAMGGLPVEAWFDDFEIKPLASASIAQVHTARLKSNGKEVVIKVIRPDILPVIKADLKLIYRLARWVPRLLPDGRRLRPTEVVREYEKTLIDELNLLRESANAIQLRRNFEDSPMLYIPEVYPDYCSEGMMVMERIYGIPVSDVAALEKNGTNMKLLAERGVQVFFTQVFRDSFFHADMHPGNIFVSYEHPENPKYIGIDCGIVGSLNKEDKRYLAENFIAFFNRDYRKVAELHVDSGWVPPDTNVEEFEFAIRTVCEPIFEKPLAEISFGHVLLNLFNTARRFNMEVQPQLVLLQKTLLYVEGVGRQLYPQLDLWKTAKPFLESWIKDQVGIPALVRAFKEKAPFWVEKMPELPELVYDSLRQGKYLQHSVDKIARELQSNHVRQGQSRYFLGIGATLVLSGTFLLVSRPEWGLMPGWLMAGGLIAWFVGWRKTR [P0A6A0] | 6.52 ± 0.12 | 6.43 ± 0.4 | 5.96 ± 0.34 | 5.829 ± 0.037 | 6.626 ± 0.057 | 12.4 ± 1.3 | 6.04 ± 0.33 | 12.3 ± 0.45 | 6.6 ± 0.39 | 12.8 ± 0.67 | – | – |
| MTPVKVWQERVEIPTYETGPQDIHPMFLENRVYQGSSGAVYPYGVTDTLSEQKTLKSWQAVWLENDYIKVMILPELGGRVHRAWDKVKQRDFVYHNEVIKPALVGLLGPWISGGIEFNWPQHHRPTTFMPVDFTLEAHEDGAQTVWVGETEPMHGLQVMTGFTLRPDRAALEIASRVYNGNATPRHFLWWANPAVKGGEGHQSVFPPDVTAVFDHGKRAVSAFPIATGTYYKVDYSAGVDISRYKNVPVPTSYMAEKSQYDFVGAWCHDEDGGLLHVANHHIAPGKKQWSWGHSEFGQAWDKSLTDNNGPYIELMTGIFADNQPDFTWLDAYEEKRFEQYFLPYHSLGMVQNASRDAVIKLQRSKRGIEWGLYAISPLNGYRLAIREIGKCNALLDDAVALMPATAIQGVLHGINPERLTIELSDADGNIVLSYQEHQPQALPLPDVAKAPLAAQDITSTDEAWFIGQHLEQYHHASRSPFDYYLRGVALDPLDYRCNLALAMLEYNRADFPQAVAYATQALKRAHALNKNPQCGQASLIRASAYERQGQYQQAEEDFWRAVWSGNSKAGGYYGLARLAARNGNFDAGLDFCQQSLRACPTNQEVLCLHNLLLVLSGRQDNARVQREKLLRDYPLNATLWWLNWFDGRSESALAQWRGLCQGRDVNALMTAGQLINWGMPTLAAEMLNALDCQRTLPLYLQASLLPKAERGELVAKAIDVFPQFVRFPNTLEEVAALESIEECWFARHLLACFYYNKRSYNKAIAFWQRCVEMSPEFADGWRGLAIHAWNKQHDYELAARYLDNAYQLAPQDARLLFERDLLDKLSGATPEKRLARLENNLEIALKRDDMTAELLNLWHLTGQADKAADILATRKFHPWEGGEGKVTSQFILNQLLRAWQHLDARQPQQACELLHAALHYPENLSEGRLPGQTDNDIWFWQAICANAQGDETEATRCLRLAATGDRTINIHSYYNDQPVDYLFWQGMALRLLGEQQTAQQLFSEMKQWAQEMAKTSIEADFFAVSQPDLLSLYGDLQQQHKEKCLMVAMLASAGLGEVAQYESARAELTAINPAWPKAALFTTVMPFIFNRVH | – | – | – | – | 4.96 ± 0.015 | 8.56 ± 1.8 | – | – | – | 7.32 | 3.06 ± 0.34 | – |
| MNKSGKYLVWTVLSVMGAFALGYIALNRGEQINALWIVVASVCIYLIAYRFYGLYIAKNVLAVDPTRMTPAVRHNDGLDYVPTDKKVLFGHHFAAIAGAGPLVGPVLAAQMGYLPGMIWLLAGVVLAGAVQDFMVLFVSTRRDGRSLGELVKEEMGPTAGVIALVACFMIMVIILAVLAMIVVKALTHSPWGTYTVAFTIPLALFMGIYLRYLRPGRIGEVSVIGLVFLIFAIISGGWVAESPTWAPYFDFTGVQLTWMLVGYGFVAAVLPVWLLLAPRDYLSTFLKIGTIVGLAVGILIMRPTLTMPALTKFVDGTGPVWTGNLFPFLFITIACGAVSGFHALISSGTTPKMLANEGQACFIGYGGMLMESFVAIMALVSACIIDPGVYFAMNSPMAVLAPAGTADVVASAAQVVSSWGFSITPDTLNQIASEVGEQSIISRAGGAPTLAVGMAYILHGALGGMMDVAFWYHFAILFEALFILTAVDAGTRAARFMLQDLLGVVSPGLKRTDSLPANLLATALCVLAWGYFLHQGVVDPLGGINTLWPLFGIANQMLAGMALMLCAVVLFKMKRQRYAWVALVPTAWLLICTLTAGWQKAFSPDAKVGFLAIANKFQAMIDSGNIPSQYTESQLAQLVFNNRLDAGLTIFFMVVVVVLALFSIKTALAALKDPKPTAKETPYEPMPENVEEIVAQAKGAH | 5.72 | 4.33 | – | 4.96 ± 1.1 | 5.34 ± 0.24 | 11.7 ± 0.39 | 5.33 ± 0.76 | – | 5.517 ± 0.042 | 10.3 ± 0.19 | 3.36 ± 0.37 | 4.49 ± 0.2 |
| MNQFYVHVRLFEDTAEQTKKFEELMLNFLYQKTVKESDDSCCRLIPEGYILKSTMNCQQILDQTFSIANSAGVDANIFVCKFEQSACLLPSASLVGNDFVHYDLTPKPIKLDS | 5.47 ± 0.25 | – | – | – | – | – | – | – | – | – | – | – |
| MNKYWLSGIIFLAYGLASPAFSSETATLAINGRISPPTCSMAMVNGQPQQHCGQLTYNVDTRHLFSSPVKGVTTEVVVAGSDSKRRIVLNRYD | 1.53 | – | – | 0.626 ± 0.25 | 0.465 | – | – | – | – | – | – | – |
| MQRLFLLVAVMLLSGCLTAPPKEAARPTLMPRAQSYKDLTHLPAPTGKIFVSVYNIQDETGQFKPYPASNFSTAVPQSATAMLVTALKDSRWFIPLERQGLQNLLNERKIIRAAQENGTVAINNRIPLQSLTAANIMVEGSIIGYESNVKSGGVGARYFGIGADTQYQLDQIAVNLRVVNVSTGEILSSVNTSKTILSYEVQAGVFRFIDYQRLLEGEVGYTSNEPVMLCLMSAIETGVIFLINDGIDRGLWDLQNKAERQNDILVKYRHMSVPPES [P0AEA2] | – | – | – | – | – | – | – | 4.39 | – | – | – | – |
| MSQIHKHTIPANIADRCLINPQQYEAMYQQSINVPDTFWGEQGKILDWIKPYQKVKNTSFAPGNVSIKWYEDGTLNLAANCLDRHLQENGDRTAIIWEGDDASQSKHISYKELHRDVCRFANTLLELGIKKGDVVAIYMPMVPEAAVAMLACARIGAVHSVIFGGFSPEAVAGRIIDSNSRLVITSDEGVRAGRSIPLKKNVDDALKNPNVTSVEHVVVLKRTGGKIDWQEGRDLWWHDLVEQASDQHQAEEMNAEDPLFILYTSGSTGKPKGVLHTTGGYLVYAALTFKYVFDYHPGDIYWCTADVGWVTGHSYLLYGPLACGATTLMFEGVPNWPTPARMAQVVDKHQVNILYTAPTAIRALMAEGDKAIEGTDRSSLRILGSVGEPINPEAWEWYWKKIGNEKCPVVDTWWQTETGGFMITPLPGATELKAGSATRPFFGVQPALVDNEGNPLEGATEGSLVITDSWPGQARTLFGDHERFEQTYFSTFKNMYFSGDGARRDEDGYYWITGRVDDVLNVSGHRLGTAEIESALVAHPKIAEAAVVGIPHNIKGQAIYAYVTLNHGEEPSPELYAEVRNWVRKEIGPLATPDVLHWTDSLPKTRSGKIMRRILRKIAAGDTSNLGDTSTLADPGVVEKLLEEKQAIAMPS | 4.67 ± 0.31 | 4.83 ± 0.67 | 3.54 ± 0.24 | 3.221 ± 0.018 | 4.91 ± 0.44 | 7.66 ± 0.46 | 3.88 ± 0.81 | 4.67 ± 0.55 | 4.28 ± 0.03 | 7.43 ± 0.81 | 2.89 ± 0.091 | 3.24 ± 0.14 |
| MENAKMNSLIAQYPLVKDLVALKETTWFNPGTTSLAEGLPYVGLTEQDVQDAHARLSRFAPYLAKAFPETAATGGIIESELVAIPAMQKRLEKEYQQPISGQLLLKKDSHLPISGSIKARGGIYEVLAHAEKLALEAGLLTLDDDYSKLLSPEFKQFFSQYSIAVGSTGNLGLSIGIMSARIGFKVTVHMSADARAWKKAKLRSHGVTVVEYEQDYGVAVEEGRKAAQSDPNCFFIDDENSRTLFLGYSVAGQRLKAQFAQQGRIVDADNPLFVYLPCGVGGGPGGVAFGLKLAFGDHVHCFFAEPTHSPCMLLGVHTGLHDQISVQDIGIDNLTAADGLAVGRASGFVGRAMERLLDGFYTLSDQTMYDMLGWLAQEEGIRLEPSALAGMAGPQRVCASVSYQQMHGFSAEQLRNTTHLVWATGGGMVPEEEMNQYLAKGR | 5.22 ± 0.27 | 5.27 ± 1.2 | 5.43 ± 0.24 | 4.517 ± 0.042 | – | 10 ± 1.9 | 4.91 ± 0.21 | 7.88 ± 0.44 | 5.98 ± 0.35 | 11.2 ± 2.2 | 3.01 ± 0.033 | 4.89 ± 0.1 |
| MNRIYACPVADVPEGEALRIDTSPVIALFNVGGEFYAINDRCSHGNASMSEGYLEDDATVECPLHAASFCLKTGKALCLPATDPLTTYPVHVEGGDIFIDLPEAQP [P0ABW0] | – | – | – | – | – | – | – | – | – | 2.53 | – | – |
